The results in this text go back to a protein production outcome set (Wang et al. 2014).

This data set in a line: label from the status in PepcDB records.
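Note: failed if final PepcDB status was selected cloned or expressed and not failed if soluble or beyond.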

Take “MQIGGRQHGDWTHYSVDSDLVVAADAWQVSLGLPGGVFPPDVEPGAMVKVQVGGETVLMGRIDDISHSVASGSHQLTLSGRDLAGMLLDCSAPLFTGKGMTLQDVLDNVVKPLGIANIRVDAKARGQIEKINVDPGNSAWDVLTRAAQANGLTAWFDPDGTLLVGGPDYSRPASARLILRRDGKGNNVLSLAETRSHAQRYSELTLLGQGHGQSLTPGRHAMRHHVFDSDVCYHKPRIQVEPDAASPAELAARADKMLADARLAGYTLTATVAGHRDSQGALWTPGQRIEVESEPHGINGTYFLMARTFEGGRGQGSVTRLTLKEDKCWIPVMRAGKQ”: the protein production result was “failed”.
For “MQIIEGKLQLQGNERVAILTSRFNHIITDRLQEGAMDCFKRHGGDEDLLDIVLVPGAYELPFILDKLLESEKYDGVCVLGAIIRGGTPHFDYVSAEATKGIAHAMLKYSMPVSFGVLTTDNIEQAIERAGSKAGNKGFEAMSTLIELLSLCQTLKG”, the protein production entry is “failed”.
As to “MQIKELAELTGVSVRTLHHYDKIGLLVPQKDDWNGYRIYSEKDVDKLQQILFFKELDFPLKKIQQILDDPLFDKNVALDMQRHLLIEKKQRIETMLATLDLTIKNEKGEITMTNKEKFTGFDFSSNPYEEEARKLWGDKVVEKANEKVNNMSEKEQLTLKESFDAEFRHLASVRKLTPESEEAQLEIDHFFHYLNDTHGNIYSLEAFASLGEMYVNDERFTKNIDQFGDGLSQFLQEAMTIYAKNK”, the protein production entry was “not failed”.
For “MQISIKTVKGKSINLEVADSSDTIDLKINGEPTRQLVLRLGPAVLMRIFVSTIKEKTFILEVKGSDTIKKLKSMIHDQGGPPVDQQDLNHLGTKLKNNATISDYNIKPDANLVIMQNGCIC”, the protein production result was “failed”.
“MQITIKVLKGKDCTIEVAPTSTILEVKHQIEAELQISATNQKLLLLGRPLNNEQTIASYPNIKEGTKLNLVVIKP”: the protein production result is “failed”.
For the sequence “MQITIKVLKGKDCTIEVAPTSTILEVKHQIEAELQISATNQKLLLLGRPLNNEQTIASYPNIKEGTKLNLVVIKPCLRDSILRGFRKHYSEPLAERMTNEFMADFERKINEQSLDDLERLADSIVNRAAT”, the protein production result was “failed”.
As for “MQIVKKEKFILKEYTFENGRTIPVQMGYETYGTLNRERSNVILICHYFSATSHAAGKYTAHDEESGWWDGLIGPGKAIDTNQYFVICTDNLCNVQVKNPHVITTGPKSINPKTGDEYAMDFPVFTFLDVARMQCELIKDMGIARLHAVMGPSAGGMIAQQWAVHYPHMVERMIGVITNPQNPIITSVNVAQNAIEAIRLDPSWKGGKYGEEQPMKGLQLANRMMFMNAFDEHFYETTYPRNSIEVEPYEKVSSLTSFEKEINKLTYRSIELVDANSWMYTAKAVLLHDIAHGFSSLEEALSNVEANVLMIPCKQDLLQPSRYNYKMVDLLQKQGKYAEVYEIESINGHMAGVFDIHLFEKKVYEFLNRKVSSFV”, the protein production entry is recorded as “not failed”.
For the sequence “MQKCSLITVISLSVLMLAGCTTTYTMTTRTGEIIETQGKPEVDTATGMTKYADAYGYHRVIKTSEIVQTTEGASKLDWLEHHHHHH”, the protein production result was “failed”.
“MQKINIDRHATAQINMLANKLMLKSSTAYTQKFGIGMTEWRIISVLSSASDCSVQKISDILGLDKAAVSRTVKKLEEKKYIEVNGHSEDKRTYAINLTEMGQELYEVASDFAIEREKQLLEEFEEAEKDQLFILLKKLRNKVDQM”: the protein production entry is listed as “not failed”.
As for “MQKIPGYENTNSEVPDKKYWLYGLMIVFFALAFRLFELGERVLHHDESIHASFTLKLLEHGEYSYDPAYHGPFLFHSTAAVFHFLGITDTTSRLVPVLFGVATILLLFLLKKELGKNGVLWSMFLLAFSPSMVYFSRFFRNDMIIIFCTLAAVTGAFRYLDSIHSLKRYPYLVLAASSLAVAVSSKENAYIILAVFGAYAGLGFLYWICSDWKKENMGLKETLRSKTSALLPYLPEIILSGALSVFIIMFFYSSAFRYDVSLFSIVERAFNHWMEMHSIERIGGPFYYYIPILLRYEIPVVLFGAAGFFYFLFNRVRNKGQNYSFFLFLCYWALTSLLLYSYIQEKVPWLVVHIVLPFGLLAGAFLGEVFSKKNKDGQPKKPDYPGKIRALLTVILVLTLLVFISQCISVNYYRSMEDEELITYTQASPDIRILMEKIEGFNESPDTLRIYVIDQYQLYWPLPWYLRDYERAAYSSKPPSSSKYDAIIVPISCDMYRELSEEEYSSYNFTLRPGRDFTLYYNNKLEQQ”, the protein production result is given as “failed”.
On to “MQKKNFWQIYFGKDPFSKAEFIKAWIGWWVIAIVLLGVLSICTSLNLRGIGIALGFGFCQIHARYLTFVGWNKFIGVLGVFPVTNIILFIVLLFTKKK”, for which the protein production result is “failed”.
Turning to “MQKKSIYVAYTGGTIGMQRSDNGYIPVSGHLQRQLALMPEFHRPEMPDFTIHEYAPLIDSSDMTPEDWQHIANDIQQNYDLYDGFVILHGTDTMAFTASALSFMLENLAKPVIITGSQIPLAELRSDGQTNLLNALYLAANHPVNEVSLFFNNQLFRGNRTTKAHADGFDAFASPNLSVLLEAGIHIRRQSSVVSPTSNGPLIVHRITPQPIGVVTIYPGISGAVVRNFLLQPVKALILRSYGVGNAPQKAELLDELKNASDRGIVVVNLTQCISGSVNMGGYATGNALAQAGVISGFDMTVEAALTKLHYLLSQSLSPNEIRQLMQQNLRGELTDTQ”, the protein production result is “not failed”.
With “MQKKTQKLTVYVIVGLLIISLVGTSFMFLGDMRPTVGKNYQDQINSLKQALEANPQDTQTRLALADTYYDWGMQTLSQDMAEENLATTTSILQQAVTEYQEVLKTEKNVNILVDMATAAFYTSQNELADQTFQEALQEDPNFYNGLYNYGVFLYSQGDYGKAIEQWEKALALENISTDDKERLERNIKLAQDGIVQQFQQPENGDSSDANAEAK”, the protein production entry was “failed”.
With “MQKLVEQVWDYTKHAKFYSYRPNYAPKTIDMLISLVGKKDIKVADIGAGTGNLSIMLLERGCKVVSVEPNDAMREIGIERTKDQKIDWVRATGLNSTLQNSEFDWVTFGSSFNVMDRNEALEEAHRLLKSEGYFSCMWNHRDLNDPVQKIAEDTIVEFVPNYTRGTRREDQRPIIESRKDLFDNIVYIEEDFYFHQSIENYINAWKSVKNPYWDLETDEGNELFNKISNKISQRLPKEFSIKYTTRCWSAKKI”, the protein production result is “failed”.
In the case of “MQLHELVNTLGQDLQRRYGEKVHKLTLHGGFSCPNRDGTIGRGGCTFCNVASFADEEVQIKSIHEQLKDRAGEIHRAKKYLAYFQAYTSTYAEVQVLKNMYEEALKAADIVGLCVGTRPDCVPDSVLDLLSDYVNQGYEIWLELGLQTANNDTLKRINRGHDFECYAEITQRARALGIKVCTHLIVGLPKETRDDNIETLQKVLAVGTDGIKLHGLHIVEGSTMAKAWRAGRLEAPGLEEYVAIASEMIRMTPADVVFHRVSSAARRPTLLSPLWCENRWLAMTEIGRALNKDGAQGSLIGKPFIYTKPELKADCSINN”, the protein production entry is listed as “failed”.
In the case of “MQLITFLHEFIKHPKHTGAIAPSSKILAKKMVDVIDFNKAKCIVELGPGTGVFTKEIMKRKKKETIFLLIEINEVFFKELKRKFKDEQNVIVVHGSAENIKKYMGEHNIECIDYVLSGLPFTSLPEEVSKRILNNAMEAIHENGEFITFQYSLVKKGFIQHFFPEITLEKVWLNFPPAYVFSCKKELRRAYA”, the protein production result is “failed”.
For the sequence “MQLNQTNTPFNEEQLALINQLLPMLTPEQQHWLSGYLLNPATTSVSDNKTDIQENEAGITETETSTSTDQSVSEPVSASTEPLDVHVLYGTETGNAEEIAETFETKLKSQNLNVHLWDMDDFPRDSLPEVEHLFIICSTQGVGEPPINALDLYDYLHGDDAPQLDQVNFAVLALGDQDFPDFCQAGKDFDYILGQLGANRVADRVDCDFDYEETAEQWITNMLELLTQASSNTNEETPSVENEDVTIEEPQAPYSKSNPFQAEVLKNTILTQPEASREVRHLEISLEGYREAYEPGDSLVVIPQNDPVLVNQLIDALNWDAETPIQMNDSDSMRSLKEALTHDFEIAKLTPVLMKNAAELLGNPMLNANIQKSEWVQNYIYGKDVIDLIRDFTPVALEPNMLPQLLRKLPPREYSIASSNKVNPNSVHITVRVVKYEAHRRERFGVCSVQLADRTSVGDKLPVYLKKNPNFKFPYDTETPVIMIGAGTGIAPYRAYLQERAYLNLKGEQWLIFGNQNYHHDFLYKDDLEQWLEEGVLSKLDLAFSRETENKIYVQHRIEENSAEFYKWIQAGATIYLCGNKDEMASGVHESLIKVLIKEGNLDETEAEAYLTEMIKNQRYQRDVY”, the protein production result is “failed”.
For “MQLQLICEDPSQQSHLDELAARWQLSHTDESDFALVLTAERLELRKVDEPKLGAIFVDLIGGAVGHRRKFGGGKGQAIAKAAGLNKGATPTVLDGTAGLGRDAFVLASLGCKVQMVERHPVVAALLDDGLARAKQDPEIGTWVSERMSLIHASSHDALDQLAQDREFVKPDVVYLDPMYPHPENKKKSALVKKEMRVFQSLVGADLDADGLLEPALALATKRVVVKRPDYANWLNEQKPSMAIETKKNRFDVYVKASMALEHHHHHH” the value was “not failed”; for “MQLSGRSSSGLGRAGQLLRRPEVLAFLPALSLLAYWLGGERALVFVALGLPLFYATVGAFRPAAPSVTPDGLALRPQVIASLDRVLQDRESTGRTTACLVLQFDGMDKLLDRHGRATQSEVLARCCDRLCSTLREGDTVARLEGGGLAVALHPVRRLDLQSVVLLAGRLQTAIAAPISVEGTRIHVTCSIGFCLAERTPAPTGRALLDAAQMAADEASRNGPGAVRAYALGMSRNRADRDADRGLLETALDTGQFTGWFQPQIRTEDGAIGGFEVLSRWQHPERGLLLPQDFLPAIERAGLSERLGEVMLFQALTALRHWDRAGLCVPCVAVNFSATDLRNPRLVDRLKWELDRFELTPARLSVEILETVVAEGASDVVVHNIAGLSACGFGVDLDDFGTGHASITTIRRFALRRLKIDRSFVTRADSDAAQRTMLAAIISMARQLGLETLAEGVETPGELATLTALGCGYLQGYAIARPMPLSDATAWLENRRVRLPLAARCATPGS”, “failed”; for “MQLSSLTAVSPVDGRYAGKTQALRPIFSEYGLIRFRVMVEVRWLQRLAAHPQITEVPAFSAQANAILNTLAEDFSVEHAERVKEIERTTNHDVKAVEYLLKEQAAKLPELENVSEFIHFACTSEDINNLSHALMLREGRDTVMLPLMRQIADAIRELAIRFADVPMLSRTHGQPASPTTLGKELANVVYRLERQITQIAAVPLLGKINGAVGNYNAHLSAYADIDWEANARAFIEDELGLGFNPYTTQIEPHDYIAELFDAVARFNTILIDFDRDIWGYISLGYFKQRTIAGEIGSSTMPHKVNPIDFENSEGNLGIANALFQHLASKLPVSRWQRDLTDSTVLRNLGVGFAHSVIAYEASLKGISKLELNEQRIAADLDACWEVLAEPIQTVMRRYNIENPYEKLKELTRGKGIGPEALQTFIDGLDMPAQAKAELKKLTPANYIGNAAAQAKRI”, “not failed”.
With “MQMIKPPVQRHSHRRHRLLRSLGHQFSFGFFALCEKQRECKCDMATVMTTNLYNVARHSPHPIIFVCGSWSSLIESLIESAKEEEESMRRRS”, the protein production entry is listed as “failed”.
“MQMNNHIRLRKAEGKWVIRTDSAVLGETLNAIELTEGSRDPVIYFPREDVAMVMFDKSEKVTACPLKGEASYYSIVGASGTLKDAAWSYESPKEGLEAIAGYLAFAPDCTKVGQY”: the protein production entry is recorded as “not failed”.
